Measurements from patent US20240285782A1, “METHODS FOR USING BIOADHESIVE AND STERIC INTERACTIONS OF COPOLYMERS WITH AT LEAST TWO MOIETIES TO MINIMIZE ADVERSE EFFECTS MEDIATED BY EXTERNAL INFLUENCES ON CELL, TISSUE, ORGAN SYSTEM, AND ORGANISM BIOLOGY” (priority 2021, published 2024).
Read-outs that look alike come from different tables or passages of the source.

Key:
corneal cell = conditions: low dose exposure; cited from earlier work
[1] = cited from earlier work

Compound | toxicity to cells, corneal cell death (corneal cell) | toxicity (positive control, pilot evaluation FIG. 8) (HCE-T cells) | half-life ([1]; after the first infusion) [days] | half-life ([1]; in steady state) [days] | time to reach steady state ([1]; in vivo) [days]
CCN(c1nc(N)c(C(=O)N=C(N)N)nc1Cl)C(C)C [EIPA, 5-(N-ethyl-N-isopropyl)amiloride] | toxic | toxic |  |  | 
Belnatomab mafodotin: ADC cited as an example for half-life |  |  | 12 | 14 | 70
